Numbering of substitutions follows the chain as printed.
B1: 30 (VHH)
VHH: QVQLVESGGGLVQAGGSLRLSCAASGFPVKTYTMYWYRQAPGKEREWVAAIESTGRYTAYADSVKGRFTISRDNAKNTVYLQMNSLKPEDTAVYYCEVYVGFFYHGQGTQVTVS
B2: 31 (VHH)
VHH: B1 VHH with K30T, T31E, Y32N, E52T, T54N, R56S, Y57Q, F102Y
B3: 32 (VHH)
VHH: B1 VHH with K30A, T31E, Y32K, T33S, E52A, T54N, R56V, Y57L, F102Y
B4: 33 (VHH)
VHH: B1 VHH with K30D, T31K, Y32A, T33H, E52D, R56S, A59H, F102Y, F103M
B5: 34 (VHH)
VHH: QVQLVESGGGLVQAGGSLRLSCAASGFPVNNRSMYWYRQAPGKEREWVAAIASSGFTTAYADSVKGRFTISRDNAKNTVYLQMNSLKPEDTAVYYCEVVVGYWYHGQGTQVTVS
B6: 35 (VHH)
VHH: QVQLVESGGGLVQAGGSLRLSCAASGFPVRWKSMAWYRQAPGKEREWVAAISSYGFWTEYADSVKGRFTISRDNAKNTVYLQMNSLKPEDTAVYYCIVHVGVSYRGQGTQVTVS
B7: 36 (VHH)
VHH: B1 VHH with K30N, Y32H, E52T, T54N, R56Q, Y57S, Y99R, F102Y
B8: 37 (VHH)
VHH: B6 VHH with R30W, Y54F, F56W, W57Y, I97A, H99Y, V102S, S103Y, R105W, Q107R
B9: 38 (VHH)
VHH: B1 VHH with K30Y, Y32N, E52T, T54S, R56H, Y57N, F102W
B10: 39 (VHH)
VHH: B6 VHH with R30K, Y54W, F56W, W57Y, I97Y, H99Y, V102H, S103T, R105H
B11: 40 (VHH)
VHH: B1 VHH with V2L, K30R, T31S, R38S, E52N, T54Q, R56N, Y57T, F102Y, F103W
B12: 41 (VHH)
VHH: B1 VHH with K30N, T31S, T33V, E52G, R56E, Y99F, F102Y, H105Y
B13: 42 (VHH)
VHH: B5 VHH with N31T, S54T, F56W, T57S, V99E, H105Y
B14: 43 (VHH)
VHH: QVQLVESGGGLVQAGGSLRLSCAASGFPVSYIGMEWYRQAPGKEREWVAAITGFGHWTAYADSVKGRFTISRDNAKNTVYLQMNSLKPEDTAVYYCEVQVGAKYYGQGTQVTVS
B15: 47 (VHH)
VHH: B1 VHH with K30D, T31S, Y32K, E52A, T54A, R56H, Y57L, Y99H, F102W
B16: 48 (VHH)
VHH: B1 VHH with K30A, T31M, Y32N, E52T, T54S, R56E, Y57H, F102Y
B17: 49 (VHH)
VHH: B1 VHH with K30Y, T31N, Y32N, E52S, T54G, R56S, Y57N, F102Y
B18: 50 (VHH)
VHH: B1 VHH with K30W, T31H, Y32D, E52G, R56N, Y57L, F102Y
B19: 52 (VHH)
VHH: B6 VHH with R30K, F56W, W57H, I97T, H99N, V102K, S103G, R105E
B20: 53 (VHH)
VHH: B5 VHH with N31T, S54T, F56W, T57S, V99Y, W103F
B21: 54 (VHH)
VHH: B1 VHH with K30Q, T31H, T33V, E52D, T54S, R56A, Y57H, A59V, F102W
B22: 57 (VHH)
VHH: B1 VHH with K30S, T31Q, Y32K, E52A, T54E, R56Q, Y57K, F102Y
B23: synthetic nanobody Sb51 (VHH)
VHH: QVQLVESGGGLVQAGGSLRLSCAASGFPVGRVMYWYRQAPGKEREWVAAISSHGDMTAYADSVKGRFTISRDNAKNTVYLQMNSLKPEDTAVYYCEVYVGYFYHGQGTQVTVS
notes: in the coordinates deposited here (complex with compound 1); Supplementary Data 1 lists the hits from which Sb51 was chosen; source: E. coli C41(DE3) periplasm, MBP fusion, purified (NiNTA, TEV cleavage, NiNTA, cation exchange); not shown: His10, N-terminal, cleaved
B24: Synthetic nanobody clone 13 (VHH)
VHH: QVQLVESGGGLVQAGGSLRLSCAASGFPVNAREMYWYRQAPGKEREWVAAIVSKGSHTEYADSVKGRFTISRDNAKNTVYLQMNSLKPEDTAVYYCNVKDFGWWAVYYDYWGQGTQVTVS
notes: synthetic nanobody selected from the libraries of Zimmermann and coworkers by ribosome display and phage display; Host, tags and purification are told only for Sb51 (clone 51); also called Clone No. 13
B25: Synthetic nanobody clone 7 (VHH)
VHH: B24 VHH with N30L, A31R, R32Q, Y35F, V52W, H57T, F101Y, A105N, V106N, Y107W
notes: synthetic nanobody selected from the libraries of Zimmermann and coworkers by ribosome display and phage display; Host, tags and purification are told only for Sb51 (clone 51: E. coli C41(DE3), MBP fusion cleaved by TEV); also called Clone No. 7
B26: Synthetic nanobody clone 15 (VHH)
VHH: B24 VHH with N30K, A31Q, Y35A, V52W, S56A, E59V, A105N, V106R, Y107Q
notes: synthetic nanobody selected from the libraries of Zimmermann and coworkers by ribosome display and phage display; Host, tags and purification are told only for Sb51 (clone 51); also called Clone No. 15
B27: Synthetic nanobody clone 45 (VHH)
VHH: B1 VHH with K30Y, E52T, T54E, R56I, Y57S, F102Y
notes: synthetic nanobody selected from the libraries of Zimmermann and coworkers by ribosome display and phage display; Host, tags and purification are told only for Sb51 (clone 51); also called Clone No. 45
B28: Synthetic nanobody clone 44 (VHH)
VHH: B1 VHH with K30D, E52N, T54N, R56H, Y57H, F102W, F103W, H105Y
notes: synthetic nanobody selected from the libraries of Zimmermann and coworkers by ribosome display and phage display; Host, tags and purification are told only for Sb51 (clone 51); also called Clone No. 44
B29: Synthetic nanobody clone 46 (VHH)
VHH: B1 VHH with K30D, T31A, T33V, E52A, T54Q, R56H, Y57P, F102Y, Q110R
notes: synthetic nanobody selected from the libraries of Zimmermann and coworkers by ribosome display and phage display; Host, tags and purification are told only for Sb51 (clone 51); also called Clone No. 46
B30: Synthetic nanobody clone 55 (VHH)
VHH: B1 VHH with K30Q, T31S, Y32H, E52N, R56Q, Y57G, F102Y
notes: synthetic nanobody selected from the libraries of Zimmermann and coworkers by ribosome display and phage display; Host, tags and purification are told only for Sb51 (clone 51); also called Clone No. 55
B31: Synthetic nanobody clone 56 (VHH)
VHH: QVQLVESGGGLVQAGGSLRLSCAASGFPVVSYNMKWYRQAPGKEREWVAAIYSFGSLGSWTHYADSVKGRFTISRDNAKNTVYLQMNSLKPEDTAVYYCHVYVGATYYGQGTQVTVS
notes: synthetic nanobody selected from the libraries of Zimmermann and coworkers by ribosome display and phage display; Host, tags and purification are told only for Sb51 (clone 51); also called Clone No. 56

How the values were obtained:
[1] = biological target: T1, wildtype OX2R (Homo sapiens, UniProt O43614); assay: Saturation binding of 125I-OxA to wildtype OX2R; conditions: CHO cell membranes, wild-type OX2R, room temperature, 6 h, pH 7.4; mean ± s.e.m., n = 3
T1 sequence (O43614 1-444): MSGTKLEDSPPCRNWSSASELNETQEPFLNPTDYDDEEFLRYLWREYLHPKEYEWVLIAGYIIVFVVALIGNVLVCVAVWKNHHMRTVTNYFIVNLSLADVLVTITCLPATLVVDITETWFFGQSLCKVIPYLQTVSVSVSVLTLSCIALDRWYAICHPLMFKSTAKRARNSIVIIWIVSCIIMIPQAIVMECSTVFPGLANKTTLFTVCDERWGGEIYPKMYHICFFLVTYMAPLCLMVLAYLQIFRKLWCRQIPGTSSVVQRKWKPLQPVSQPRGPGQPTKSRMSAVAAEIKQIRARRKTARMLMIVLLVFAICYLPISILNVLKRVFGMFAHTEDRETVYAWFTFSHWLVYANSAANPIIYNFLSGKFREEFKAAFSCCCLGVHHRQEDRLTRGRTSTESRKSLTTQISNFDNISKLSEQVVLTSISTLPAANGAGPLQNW

[2] = biological target: T2, engineered OX2R carrying an additional amino-terminal Avi-tag, biotinylated (Homo sapiens, UniProt O43614, residues V261–A291 deleted, biotin on the Avi-tag (BirA biotin-protein ligase))
[3] = biological target: T2, engineered OX2R carrying an additional …; assay: grating-coupled interferometry; WAVE system (Creoptix); agonist-bound OX2R immobilised via the biotinylated Avi-tag on a neutravidin-coated WAVEchip 4PCP; conditions: both partners purified
[4] = biological target: T3, Engineered human orexin receptor 2 (OX2R) truncated after R389, ICL3 residues V261-A291 deleted, with an … (human, UniProt O43614 1-389, residues V261–A291 deleted, biotin on the Avi-tag (BirA biotin-protein ligase)); assay: grating-coupled interferometry; WAVE system (Creoptix); agonist-bound OX2R immobilised via the biotinylated Avi-tag on a neutravidin-coated WAVEchip 4PCP; nanobody as analyte; conditions: both partners purified
T3 construct: Orexin receptor type 2 (OX2R), human, truncated after residue R389, part of ICL3 (residues V261-A291) deleted; M1 is said to be present in the construct; Detergent-solubilised receptor (DDM/CHS); The PDB entries hold the construct without the Avi-tag; also called engineered OX2R; orexin receptor type 2; source: biotinylated with BirA; not shown: Avi-tag, N-terminal, kept
T3 sequence (looked up): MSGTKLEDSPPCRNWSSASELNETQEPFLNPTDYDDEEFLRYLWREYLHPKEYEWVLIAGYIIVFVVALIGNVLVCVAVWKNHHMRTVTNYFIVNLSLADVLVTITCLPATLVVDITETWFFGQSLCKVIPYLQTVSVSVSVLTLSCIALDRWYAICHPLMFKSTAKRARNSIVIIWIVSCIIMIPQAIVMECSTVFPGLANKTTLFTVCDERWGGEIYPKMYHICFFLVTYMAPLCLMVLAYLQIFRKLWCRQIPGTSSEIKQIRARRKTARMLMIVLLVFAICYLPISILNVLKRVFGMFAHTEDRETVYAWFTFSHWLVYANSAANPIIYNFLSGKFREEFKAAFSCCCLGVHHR

Molecule	binding result [2]	also measured
125I-OxA: radioligand, 125I-labelled OxA (PerkinElmer) (QPLPDCCRQKTCSCRLYELLHGAGNHAAGILTL)	–	Dissociation constant, pKD [1]: 9.12 ± 0.05
B1	binds	–
B2	binds	–
B3	binds	–
B4	binds	–
B5	binds	–
B6	binds	–
B7	binds	–
B8	binds	–
B9	binds	–
B10	binds	–
B11	binds	–
B12	binds	–
B13	binds	–
B14	binds	–
B15	binds	–

Molecule	binding result [2]	also measured
B16	binds	–
B17	binds	–
B18	binds	–
B19	binds	–
B20	binds	–
B21	binds	–
B22	binds	–
B23	–	Kd [3]: ~0.6 nM
B24	–	Kd [4]: 12 nM
B25	–	Kd [4]: 11 nM
B26	–	Kd [4]: 300 nM
B27	–	Kd [4]: 11 nM
B28	–	Kd [4]: 7.7 nM
B29	–	Kd [4]: 4.2 nM
B30	–	Kd [4]: 7.3 nM
B31	–	Kd [4]: 0.5 nM

Source: article PMC7864924, “Structures of active-state orexin receptor 2 rationalize peptide and small-molecule agonist recognition and receptor activation” (Nature Communications, 2021)
